# Test results published in US20090011979A1 (VIRON THERAPEUTICS, published 2009).
# T1: mouse IL-18 (mouse, UniProt P70380 36-192)
# T1 construct: also called murine IL-18
# T1 sequence: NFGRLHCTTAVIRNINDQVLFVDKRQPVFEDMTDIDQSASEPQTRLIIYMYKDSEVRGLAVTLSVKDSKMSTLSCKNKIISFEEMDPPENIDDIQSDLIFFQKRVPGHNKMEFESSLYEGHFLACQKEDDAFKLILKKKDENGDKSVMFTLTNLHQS
# T2: human IL-18 (human, UniProt Q14116 37-193)
# T2 construct: also called hIL-18
# T2 sequence: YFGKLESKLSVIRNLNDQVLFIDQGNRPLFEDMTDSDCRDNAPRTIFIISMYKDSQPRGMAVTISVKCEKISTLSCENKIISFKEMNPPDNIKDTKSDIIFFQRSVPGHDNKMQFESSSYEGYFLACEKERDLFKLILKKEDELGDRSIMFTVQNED
# Assays:
# [1] = molecular target: T1, mouse IL-18; experiment: Biacore (row 'Human/mouse IL-18 Biacore')
# [2] = molecular target: T2, human IL-18; experiment: immunoprecipitation (row 'Human IL-18 immunoprecipitation')
# [3] = molecular target: T2, human IL-18; experiment: Biacore (row 'Human/mouse IL-18 Biacore')
Binder,binding result [1],binding result [2],binding result [3]
"tagged YCI (YMTV IL-18 bp with a C-terminal myc/his tag) (other, also called 6xHis-tagged YCI; his-tagged version of the YCI) EKECDKHRSVNIQVPMKETSEVLLRCTGSSYFKHFSYVYWLVGESETVDQLQQNSGYGETSHPSKPHECGNLPSADLVLTNMTEKMRDTKLTCVLMDPDGHIDESLVLREVWDCFNKT",binds,binds,
"untagged YCI (YMTV IL-18 bp, YMTV Cytokine Inhibitor, without tag) (other, also called IL-18 bp from YMTV; purified untagged YCI protein) EKECDKHRSVNIQVPMKETSEVLLRCTGSSYFKHFSYVYWLVGESETVDQLQQNSGYGETSHPSKPHECGNLPSADLVLTNMTEKMRDTKLTCVLMDPDGHIDESLVLREVWDCFNKT",binds,,binds
